According to publication PMC2114230:

Assays:
[1] = target: microtubules of rat brain tubulin (rat) (UniProt P68370); assay: co-sedimentation
[2] = target: actin filaments of rabbit skeletal muscle actin (rabbit) (UniProt P68135); assay: co-sedimentation

“axolinin (260-kD protein) of squid giant axon (natural protein)” gave a percent of total axolinin sedimented [1] of 70%.

For “255-kD protein of squid giant axon (natural protein)”, the percent of total 255-kD protein sedimented [2] was 62%.
